Test results as given in paper PMC3953656.

Key:
[1] = biological target: Trypanosoma brucei Hsp70.c (Trypanosoma brucei brucei TREU927)
[2] = biological target: Trypanosoma cruzi Hsp70B (Trypanosoma cruzi)
malate dehydrogenase = malate dehydrogenase (UniProt P00346)
Sequence of UniProt P00346 (P00346 25-338): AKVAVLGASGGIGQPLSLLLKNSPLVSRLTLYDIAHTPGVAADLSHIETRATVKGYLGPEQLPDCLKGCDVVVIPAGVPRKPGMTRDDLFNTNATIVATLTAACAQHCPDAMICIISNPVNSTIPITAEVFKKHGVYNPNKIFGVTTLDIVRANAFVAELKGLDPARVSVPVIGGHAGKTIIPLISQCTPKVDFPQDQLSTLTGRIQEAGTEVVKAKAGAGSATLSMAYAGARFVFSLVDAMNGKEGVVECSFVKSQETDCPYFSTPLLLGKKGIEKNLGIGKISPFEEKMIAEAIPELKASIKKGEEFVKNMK

| Substance | stimulation of the basal ATPase activity of TbHsp70.c by Tbj2 (colorimetric phosphate release, 37°C, 600 µM ATP); equal concentrations 1.62-fold, Tbj2 at 2-fold molar excess 2.88-fold [1] | stimulation of the basal ATPase activity of TcHsp70B by Tbj2 (colorimetric phosphate release, 37°C, 600 µM ATP); equal concentrations 1.39-fold, Tbj2 at 2-fold molar excess 2.62-fold [2] | suppression of thermal aggregation of MDH (0.72 µM, 48°C, light scatter at 360 nm, 30 min) by TbHsp70.c, dose-dependent; number printed for 0.5 µM TbHsp70.c (malate dehydrogenase) |
| --- | --- | --- | --- |
| Trypanosoma brucei J protein 2 (natural protein) | 2.88 fold | 2.62 fold | – |
| Trypanosoma brucei Hsp70.c (natural protein) | – | – | 61.8% |
